Assay results: publication PMC2932714 (PLoS ONE, 2010)

Target: the molecule itself
Assay: thioflavin T fluorescence + atomi

B1: Ure2 (yeast prion protein Ure2, Saccharomyces cerevisiae) (natural protein, UniProt P23202 1-354, looked up)
chain: MMNNNGNQVSNLSNALRQVNIGNRNSNTTTDQSNINFEFSTGVNNNNNNNSSSNNNNVQNNNSGRNGSQNNDNENNIKNTLEQHRQQQQAFSDMSHVEYSRITKFFQEQPLEGYTLFSHRSAPNGFKVAIVLSELGFHYNTIFLDFNLGEHRAPEFVSVNPNARVPALIDHGMDNLSIWESGAILLHLVNKYYKETGNPLLWSDDLADQSQINAWLFFQTSGHAPMIGQALHFRYFHSQKIASAVERYTDEVRRVYGVVEMALAERREALVMELDTENAAAYSAGTTPMSQSRFFDYPVWLVGDKLTIADLAFVPWNNVVDRIGINIKIEFPEVYKWTKHMMRRPAVIKALRGE
notes: Ure2, Saccharomyces cerevisiae; the introduction describes it as a 354-amino acid homodimeric protein; It starts as the native dimer and assembles into protofibrils and mature fibrils on incubation at 4°C; also called WT Ure2; native Ure2; source: Escherichia coli, purified under native conditions
B1: binds.
